Assays:
Conditions in all cases: 285 mM Tris-HCl pH 8.0, 0.14 mg/mL BSA, 1.43 mM DTT, 5% glycerol, 0.04 mg/mL poly(dI-dC), 3.06 mM EDTA, 10 uL, 30 min at 25 C, 6% PAGE in TAE pH 8.2
[1] = system: T1, PhaR-His6 (Bradyrhizobium diazoefficiens USDA110), ORF:9916d0df; assay: EMSA
T1 sequence: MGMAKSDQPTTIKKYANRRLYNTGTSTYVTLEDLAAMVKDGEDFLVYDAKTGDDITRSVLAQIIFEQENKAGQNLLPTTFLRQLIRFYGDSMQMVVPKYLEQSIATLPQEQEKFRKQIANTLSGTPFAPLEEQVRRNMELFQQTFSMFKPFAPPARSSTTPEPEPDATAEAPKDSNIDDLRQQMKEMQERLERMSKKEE

[2] = system: T1, PhaR-His6 (Bradyrhizobium diazoefficiens USDA110), ORF:9916d0df; assay: DNase I footprinting
[3] = system: PhaR-His6 (Bradyrhizobium diazoefficiens USDA110); assay: EMSA

Substance: CACAAGATGATGCTCGATCACTACCAGCAGACCAAGAATCTCCTGGTCAGCTACAGCCCGAAGAAGCTCGGCTTCTTCTGATCGGAACAGGAGCGGGCGGCGCCGTTCTGGCGCCGCTCGTTCCGGTAAACGGGACCTGGCCCGCACGGCGTTAGATTTGTTGCCTGATCAGCGCCAAAGATTTTCCAATATTTCGATCACGTTGCAGTGCGGCATAATGAATGTCGTGTCATGCCGCCGCGGTGCTTTCCAAGGGTGTTTGACTTGGGTTAGAGAGGACGAAAGTTTTCTCTGACCCGG (double strand) [pdhA promoter]
- binding [1]: binds more weakly

Substance: CTAAGGTGATGTTCTCAAACGGCTTTTGGCCGCTTGCGGAAGCTGAACACGTCCAGGGAATCAAGGTAGGGGTCCGCGGTTTCCAAAAGCTTAAGGAACCCTTGCGGGAAACCCCGGGAATCTCTTCGGTTTGGATCTAGTTTTTGTGCGACGCACAAGATTCTTGACTTTTTTGTGCGTTGCACTAATTGTGGGCAGAGTCAGGGAGCCGGGGCTTCCCGACGCGAGCCAGGGAAAAGGATTCCGAAATGTTCAAGGTTGAAGACTTTCAGAGCTACGGGAAAGAGCAGTTC (double strand) [FAM-phaP1 promoter (footprint)]
- binding [2]: binds

Substance: ppc promoter
- K half ([3]; about half of DNA shifted only at highest concentration): 110 nM

Substance: CTCTCACTTGCAAGACGCTGAGAACGGGAACCCGGCGGCCGATGCCGCAGGGCGGGAAGAGTACGCAACGCAACAAAATAAGCATTTTCAAAGGGGTCACGCTACCGTTTTGTGCGCCACGGTTAATCGGGCAGCAAAAACGT (double strand) [phaR promoter]
- K half [1]: 110 nM

Substance: phaR promoter
- K half ([3]; half of DNA in complex at highest concentration): 110 nM
